Assay results taken from US20230285581A1.

Legend:
[1] = molecular target: human MSR1 extracellular domain expressed with a N-terminal nonahistidine tag (His9-hMSR1; R&D Systems, Cat #2708-MS) (human) (UniProt P21757); assay: competition ELISA; 100 nM antibody, competitor Ac-LDL, plate-coated His9-hMSR1
[2] = molecular target: human MSR1 extracellular domain expressed with a N-terminal nonahistidine tag (His9-hMSR1; R&D Systems, Cat #2708-MS) (human) (UniProt P21757); assay: competition ELISA; 300 nM antibody, competitor biot-AGE-BSA, plate-coated His9-hMSR1
[3] = molecular target: human MSR1 extracellular domain expressed with a N-terminal nonahistidine tag (His9-hMSR1; R&D Systems, Cat #2708-MS) (human) (UniProt P21757); assay: competition ELISA; 1 µM antibody, competitor 10 nM Ox-LDL, plate-coated His9-hMSR1
[4] = molecular target: human MSR1 endogenously expressed on PMA-differentiated THP-1 cells (human) (UniProt P21757); assay: confocal imaging, 10 µg/mL antibody + Alexa Fluor 488 secondary on PMA-differentiated THP-1 cells
human MSR1 endogenously expressed on PMA-differentiated THP-1 cells (human), sequence (P21757 whole entry): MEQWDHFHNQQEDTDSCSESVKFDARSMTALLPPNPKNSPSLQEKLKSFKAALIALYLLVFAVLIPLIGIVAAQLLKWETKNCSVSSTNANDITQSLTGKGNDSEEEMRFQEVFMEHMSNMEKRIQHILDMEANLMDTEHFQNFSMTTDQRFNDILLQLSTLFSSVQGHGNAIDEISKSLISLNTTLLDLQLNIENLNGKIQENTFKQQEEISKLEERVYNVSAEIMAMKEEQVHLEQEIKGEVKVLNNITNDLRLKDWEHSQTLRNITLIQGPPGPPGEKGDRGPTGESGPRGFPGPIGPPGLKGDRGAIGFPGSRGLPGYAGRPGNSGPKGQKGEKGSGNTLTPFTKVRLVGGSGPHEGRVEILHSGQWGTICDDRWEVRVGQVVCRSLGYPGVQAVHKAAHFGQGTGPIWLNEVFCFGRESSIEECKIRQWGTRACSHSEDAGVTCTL

[5] = molecular target: mouse MSR1 on RAW264.7 cells (mouse) (UniProt P30204); assay: flow cytometry, RAW264.7 cells, 10 ug/mL
mouse MSR1 on RAW264.7 cells (mouse), sequence (P30204 whole entry): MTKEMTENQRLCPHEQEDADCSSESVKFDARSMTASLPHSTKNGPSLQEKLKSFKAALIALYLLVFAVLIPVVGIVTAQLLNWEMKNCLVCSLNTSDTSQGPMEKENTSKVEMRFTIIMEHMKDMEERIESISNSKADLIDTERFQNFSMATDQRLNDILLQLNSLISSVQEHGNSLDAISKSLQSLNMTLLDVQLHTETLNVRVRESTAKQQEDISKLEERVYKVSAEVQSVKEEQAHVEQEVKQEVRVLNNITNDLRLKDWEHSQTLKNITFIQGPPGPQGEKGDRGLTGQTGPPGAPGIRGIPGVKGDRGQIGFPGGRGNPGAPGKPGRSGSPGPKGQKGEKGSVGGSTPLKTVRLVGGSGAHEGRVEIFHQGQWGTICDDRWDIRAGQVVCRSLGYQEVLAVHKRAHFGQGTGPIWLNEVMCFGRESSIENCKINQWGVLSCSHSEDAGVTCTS

[6] = molecular target: full length human MSR1 with a C-terminal Myc tag on HEK293.Myc.hMSR1 cells (human) (UniProt P21757); assay: ECL cell binding, HEK293.Myc.hMSR1 cells
full length human MSR1 with a C-terminal Myc tag on HEK293.Myc.hMSR1 cells (human), sequence (P21757 whole entry): as the sequence (P21757 whole entry) above

[7] = molecular target: endogenously expressed human MSR1 on PMA-treated THP-1 cells (human) (UniProt P21757); assay: ECL cell binding, PMA-treated THP-1 cells
endogenously expressed human MSR1 on PMA-treated THP-1 cells (human), sequence (P21757 whole entry): as above

[8] = molecular target: full length monkey MSR1 on HEK293.mfMSR1 cells (Macaca fascicularis); assay: ECL cell binding, HEK293.mfMSR1 cells
full length monkey MSR1 on HEK293.mfMSR1 cells (Macaca fascicularis), sequence (chain, as listed by the source): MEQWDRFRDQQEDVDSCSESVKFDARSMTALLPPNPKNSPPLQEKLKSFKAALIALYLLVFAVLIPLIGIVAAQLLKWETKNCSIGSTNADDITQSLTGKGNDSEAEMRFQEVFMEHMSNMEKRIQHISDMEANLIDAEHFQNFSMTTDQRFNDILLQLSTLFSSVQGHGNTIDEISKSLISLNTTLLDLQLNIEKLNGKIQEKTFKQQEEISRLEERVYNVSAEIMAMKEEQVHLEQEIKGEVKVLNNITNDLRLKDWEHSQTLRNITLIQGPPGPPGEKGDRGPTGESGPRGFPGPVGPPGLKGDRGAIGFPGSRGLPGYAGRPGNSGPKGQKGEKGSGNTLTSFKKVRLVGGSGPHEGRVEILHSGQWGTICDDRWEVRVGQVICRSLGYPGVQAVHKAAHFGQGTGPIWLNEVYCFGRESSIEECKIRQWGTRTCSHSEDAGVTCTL

human MSR1 extracellular domain expressed with a N-terminal nonahistidine tag (His9-hMSR1; R&D Systems, Cat #2708-MS) (human), sequence (P21757 other isoform, or with tags, fused parts or gaps): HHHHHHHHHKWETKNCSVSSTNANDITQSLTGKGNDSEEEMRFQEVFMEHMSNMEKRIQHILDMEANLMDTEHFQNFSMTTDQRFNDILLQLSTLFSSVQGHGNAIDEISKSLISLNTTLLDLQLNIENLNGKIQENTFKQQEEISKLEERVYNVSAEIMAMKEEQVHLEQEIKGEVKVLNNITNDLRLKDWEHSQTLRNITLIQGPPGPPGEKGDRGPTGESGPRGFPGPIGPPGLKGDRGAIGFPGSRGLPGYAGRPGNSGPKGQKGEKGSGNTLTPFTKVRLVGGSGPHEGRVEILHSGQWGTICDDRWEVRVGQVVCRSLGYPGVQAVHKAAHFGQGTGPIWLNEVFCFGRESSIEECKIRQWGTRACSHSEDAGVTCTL

Substance | % Blocking [1] | % Blocking [2] | % Blocking [3] | ratio of 11 nM antibody binding signal (RLU) to isotype control [6] | ratio of 11 nM antibody binding signal (RLU) to isotype control [7] | ratio of 11 nM antibody binding signal (RLU) to isotype control [8] | further results
Human IgG1 Isotype Control mAb (antibody) | -8% | 4% | 3% |  |  |  | 
Isotype control (Table 19) (antibody) |  |  |  |  |  |  | Total Binding at 4° C. (RFU) [4]: 186000 RFU; Total Binding at 37° C. (RFU) [4]: 1.09e+06 RFU
Mouse IgG1 Isotype control mAb (antibody) | -4% | 7% | 16% |  |  |  | 
commercial anti-mouse MSR1 antibody (Sino Biological, Cat #50129-R004) |  |  |  |  |  |  | MFI [5]: 245000; S/N [5]: 97
hIgG1 Isotype Control (antibody) |  |  |  | 1 | 1 | 1 | 
mIgG Isotype Control (antibody) |  |  |  | 1 | 1 | 1 | 
